Biological target: BAP-CD59a reporter, biotinylated in vitro by BirA (on CHO-S cells) (mouse)
Assay: FACS; CHO-S transfected with BAP-CD59a, incubated with BirA and stained with F-SA (non-transfected stained control MFI-69)

Chain of BAP-CD59a reporter, biotinylated in vitro by BirA (on CHO-S cells) (mouse) (chain, as listed by the source): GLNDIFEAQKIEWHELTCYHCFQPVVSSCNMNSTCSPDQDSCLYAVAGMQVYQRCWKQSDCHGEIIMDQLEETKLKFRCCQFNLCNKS

Substance: R-Phycoerythrin-conjugated Streptavidin (from UniProt P22629 37-163)
- MFI: 24400

From patent US20140011213A1
